Experimental findings from publication PMC11548879 are described below.

For series [1], the target named is IL-33 (mouse) (mouse (endogenous in BALB/c mice and CMT-64 cells)) (UniProt Q8BVZ5).
In series [2] the test system is HpARI1 (Heligmosomoides polygyrus bakeri). In words: EMSA. The conditions noted are these: pH 7.5, 30 min, room temperature.

Chain of UniProt Q8BVZ5 (Q8BVZ5 whole entry): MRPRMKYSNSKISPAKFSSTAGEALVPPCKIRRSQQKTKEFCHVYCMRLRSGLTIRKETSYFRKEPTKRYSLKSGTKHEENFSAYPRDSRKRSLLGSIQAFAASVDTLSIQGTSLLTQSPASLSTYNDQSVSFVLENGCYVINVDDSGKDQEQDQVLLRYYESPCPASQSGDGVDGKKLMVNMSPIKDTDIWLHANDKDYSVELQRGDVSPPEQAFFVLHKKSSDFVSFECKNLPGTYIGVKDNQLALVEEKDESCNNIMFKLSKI

Take “HpARI2:3 fusion protein (CCP1 domain of HpARI2 fused to the CCP2+3 domains of HpARI3)”: in series [1], the EC50 of amplification of IL-5 production from bone marrow cells (IL-2, IL-7, freeze-thawed CMT-64 supernatants; IL-33-mediated ILC2 activation) was determined as 21.5 ng/mL.

Consider “HpARI3:2 fusion protein (CCP1 domain of HpARI3 fused to the CCP2+3 domains of HpARI2)”, for which the IC50 of suppression of IL-5 production from bone marrow cells (IL-2, IL-7, freeze-thawed CMT-64 supernatants; IL-33-mediated ILC2 activation) in series [1] turned out to be 1.1 ng/mL.

In the case of “AACTTTGCCATTGTGGAAGG / CCTTCCACAATGCCAAAGTT [IR700 EMSA oligonucleotide probe]”, the binding signal in series [2] was found to be 50 % DNA bound.

HpARI2 (natural protein): the IC50 of suppression of IL-5 production from bone marrow cells (IL-2, IL-7, freeze-thawed CMT-64 supernatants; IL-33-mediated ILC2 activation) in series [1] turned out to be 1.9 ng/mL.

For the substance HpARI3 (natural protein), in series [1], the EC50 of amplification of IL-5 production from bone marrow cells (IL-2, IL-7, freeze-thawed CMT-64 supernatants; IL-33-mediated ILC2 activation) is 1.2 ng/mL.
